Experiment: soluble on expression in E. coli; label from the status in PepcDB or PDB records

Sequence	soluble on expression in E. coli
MSLSQLREIQQQFMDYLLASAAQTPIPETIEKPFSDKVAEQGGVGRDIRMQIYANAYRIRLTEVLDTDHEILGLYLGDDLFARMANGYIAHQPSRFTSLRQFADALPGYLASDAFFSQYPIISDIARFERRLLNAFDAKDEQRASFAALQSLPADAWPYCQLRFHPSVQLFECASNAVETWQALKHQQVPPAPDYQGKHAWLLWRGENRLTEFISLAEYQLALIQGFIHGANIAEQCELMLNFFTPEEAMQQLLQALQAWFQLGLILSVQPNEGHHHHHH	not soluble
MSLEWTKLTGTLKPDKDVKRGMLAIQPLGKGQFQLDVVSLFPSDTWDNGKSVFRADIMQNLKEYAPDFIRFPGGCIVHGVNEATMYHWKKTIGPIENRPGQWSKWAPYYRTDGIGYHEFYELCEYLGADAMYVIPTGMICTGWVKQSSPWNFIQPDVDLDAYIQDALDAIEYAIGPETSKWGALRVKNGHPKPFPLKYIEIGNEDFGPVYWERYEKIYQALHRQYPDLIYIANSIIGKENDDKRIDIAKFVNPKNVKVFDEHHYQPVEWACKQHYRFDNYERGIADLFVGELGIDGKYPYNLLASGAVRMSLERNGDLNPLLAERPVMRHWDFSEHRQLHSMLINGVDCSIRTSFYYLSKMFRDHTFDVCLDAGIQGMKGLQNVFVTMGYDSESKEYILKLINLRKQEVVLQTAVKGFGKKIQAQKITLSLEPGKNNTPEMPDAVKPVQSTVTLDLNKDLQLEASSMIVYRFKEGHHHHHH	not soluble
MGSDKIHHHHHHMNSLQFPRHGDKENSAFFEEYLVKLLEERDAMGLTAMVHEIDALMITVDPGHSVKYVAELCFMTSYHYLVTLESESHWTHVLRIDLDSPDLLVREVKDPNLRGIFRSLNEIYPVGARKPNSRYMGEIIRVNNLHDVVKLQQEREFRFFTQDEVRKLELPGNLAVSKPSPYTHNIVAYLERKPDEMRVYSLGVSRVDAELQMAYEAAKRLQEKLNFADLLLPIDHLATRVYSQNREVAILEYLSWSSYYFWGAYNIFDQNSSTNVTKSAHGLPESKSPAKVFTANNTPYFVNHLEKLPSPTETFVRNYGPRLHHIAVAVRDGERDGLEHIEFAVNAIASQGKGFLLDVIGSREEGLKQIFSNASEHSSLIVEYVQRFGDFQGFFTKENVAVLTEAAGREEGVKSGASLG	not soluble
MGHHHHHHSHMVVLRAGKKTFLPALCRAFACRGCQLAPERGAERRDTAPSGVSRFCPPRKSCHDWIGPPDKYSNLRPVHFYIPENESPLEQKLRKLRQETQEWNQQFWANQNLTFSKEKEEFIHSRLKTKGLGLRTESGQKATLNAEEMADFYKEFLSKNFQKHMYYNRDWYKRNFAITFFMGKVALERIWNKLKQKQKKRSN	not soluble
EEHTIIQAEFYLLPDKRGEFMFDFDGDEIFHVDIEKSETIWRLEEFAKFASFEAQGALANIAVDKANLDVMKERSNNTPDANVAPEVTVLSRSPVNLGEPNILICFIDKFSPPVVNVTWLRNGRPVTEGVSETVFLPRDDHLFRKFHYLTFLPSTDDFYDCEVDHWGLEEPLRKHWEFEE	soluble
MSTDSTNYAAKHESLGKSVQRELQKTQSQLRQVVRKMQSKYNINNKARVAEISLLRQMQSQFSRKYVNKNLGNSNTLAQQGSYTKKDGTTAQAGDLLLAADNLHSRLTDKMLSISHVRENTISPFVLGCLKQITINAYHYLK	not soluble
MSGAEQKVAYSLVSSGSLMSVNPGMARWIKELFCHNERVVLTGDWKHGFLSLTAVGATNVGSIRIHFN	not soluble
MAHHHHHHMTEYALSLYVTLPSSFPKAAPRATMPYCCHNVPITPPNINPSEALAYQWSSTTSTLVEAVRNAFQNAADCWGPVEPPSMRSVTLQLSGETDRLLQDLVTNPNCLDAYCYQLPIVKLMREASRHTVSEIERVANENTTLRNEVETLEAQVKDLQRYLDEQVSQLQQLEQNRLLLSVGTPEALIKTLEDDVRRMSSDCMTLGRRALDAYKADKGGFQDLLKQYKAQSKATHMLDLKRLSYRAQCAAS	not soluble
MANVEAIPGYLTATFPTLPIEIKDYVSAILKENSDEITSLDEVMDAVGEHLQASVENLCEVGAKNACQQLLKLLHGDNLPKAIKQQEATTKRLEQTVDMAAENQNFEALQSIWKVQTRDTPTTVDKKKLAKAEDRAAAKAEARADAPVERKKKKNEPSATASQAPIRDSGARGANSKDIKLESVDISIGTKQLLSCADVTMAFGRRYGLVGRNGIGKTTLLKMISSQQLKIPAGISMLSVEQEVEGDDTLVLDAVLMSDTKRQTLLDREKTLQSRINKDNINDAEKTKWNDELSKLYIEMEALQLDKAPARASSLLYGLGFTPDEQKRPTKEFSGGWRMRVALARALFVKPDLLLLDEPTNMLDMRAVYWLEGHLQGWEGTILTVSHDRKFLNEICTDIVHLHTRRLDHYKGNYDQFEKTMKEKLTQQQREYESQQQLRQHTQEFIDKFRYNAKRAPMVQSRIKMLEKLPVLLPVELESDIHFKFPECEVLSNPVLQLDEVSFRYNEDSPYLFRKLNLGTHANSRICIVGENGAGKTTLLKLLLDDLQPSVGLRNVNRRIRIAYFTQHHVDQLDMETSAIEVLMKNHPGKTQEDYRAALGRFGLAGDMALQSVETLSGGQKSRLAFANLALMQPNYLILDEPTNHLDVETVEALGKALNVFNGGVVLVSHDEQLIELVCKELWVVKDRMVTTLEGGLEEYRKQVYKQLQLTA	not soluble
MAKVCYFTGRKTVSANNRSHAMNKTKRVAKPNLQKVTVLIDGKPKKVWASARALKSGKVERVLEHHHHHH	not soluble
MFPQADEPERDTLPGQEEDPLPTGQEQPSITPIAGTEAQYIDIAEWYDSDSILYITDEGENSLVYIYNLLTGEKKSLFSSDDAVIKVTANSTHSQFAIQTVTQAGDAPVSIIDSQGELLMKLEDFGEDFSIFWSPYEEDKLIAVAYLPDWEQDLYLIDTSDKQVEMLDLDQSFVQWLDERTIVYLDWNGDSEGYYAPLYTFDLETEEVVLLHEEAIATLGFGDHVTLIIERPEQGAEVTTYQFWNGSEQLAEWSVPILRTYSEQWWIPFYDFDLNKRLFYAYKPNRTGDYFEYDGGFSFIAFDVDHGEETVLFESDEHVPFRLSPTGQRALFGPRLETVMDLPTGESNSLIE	not soluble
FLNNKHREKGLKAEEEACGFLKSLGFEMVERNFFSQFGEIDIIALKKGVLHFIEVKSGENFDPIYAITPSKLKKMIKTIRCYLSQKDPN	not soluble
LQSKLSLPKIPNVIECFDISHLSGTATVGSMVQFRGGRPDKHNYRRFKIESVEGIDDFASIAEVVRRRYSRLLEDKHEMPDLIIIDGGKGQLSSAFQELRKLRVKVPIISIAKREEEIYVPGLKSPLPIKKDEKASLFVQEIRDEAHRFAINYNRLLRQKALIQK	not soluble
MKNKDSLHVSRRRFLAQLGGLTVAGMLGPSLLTPRSARAADAVAPGAATKEGILTGSHWGAIRATVVDGRFVAAKPFEQDKYPSKMIAGLPDHVHNAARIRYPMVRVDWMRKGHQSDTSQRGDNRFVRVSWDEALDLFYQELERVQKTYGPSALLTASGWQSTGMFHNASGMLARAIALHGNSVSTGGDYSTGAAQVILPRVVGSMEVYEQQTSWPLVLQNSKTIVLWGSDMVKNQQANWWCPDHDVYQYYEQLKEKVASGAISVISIDPVVTSTHDYLGRDKVKHIAINPQTDVPLQLALAHTLYSEKLYDKNFLDNYCVGFDQFLPYLLGEKDGQPKDAAWAEKLCGIDADTIRALARQMAGDRTQIIAGWCVQRMQHGEQWSWMVVVLAAMLGQIGLPGGGFGFGWHYNGAGTPGRKGIILSGFSGSTTVPPVHDSTDYKGYSSTIPIARFMDAILEPGKIINWNGKSVKLPPLKMCVFAGTNPFHRHQQINRIIEGWRKLETVIAIDNQWTSTCRFADIVLPATTQFERNDLDQFGNHSNRGIIAMKQVVSPQFEARNDFDIFRDLCRRFNREAAFTEGLDEMGWLKRIWQEGSQQGKGRGIHLPIFEVFWNQQEYIEFDHPQMFVRHQAFREDPDLEPLGTPSGLIEIYSKTIADMQYDDCQGHPMWFEKIERSHGGPGSQRWPLHLQSVHPDFRLHSQLCESETLRQQYAVGGKEPVFINPQDASARGIRNGDIVRVFNARGQVLAGAVVSDRYAPGVARIHEGAWYDPDKGGDLNALCKYGNPNVLTLDIGTSQLAQATSAHTTLVEIEKYTGPMDNVTAFNGPVEMVAQCEYVPASQGNPHD	not soluble
PREIVDFHAKLINDTPLSTYVGFLDDLQEHDEIDNARALSGIPGVVIVGEQDAVTPQSQSERIVSLWSDAGLQIAPNAGHMIILEQPAIVNKAIDQMVQQAAQNVQKDDA	not soluble
MSDSSQLHKVAQRANRMLNVLTEQVQLQKDELHANEFYQVYAKAALAKLPLLTRANVDYAVSEMEEKGYVFDKRPAGSSMKYAMSIQNIIDIYEHRGVPKYRDRYSEAYVIFISNLKGGVSKTVSTVSLAHAMRAHPHLLMEDLRILVIDLDPQSSATMFLSHKHSIGIVNATSAQAMLQNVSREELLEEFIVPSVVPGVDVMPASIDDAFIASDWRELCNEHLPGQNIHAVLKENVIDKLKSDYDFILVDSGPHLDAFLKNALASANILFTPLPPATVDFHSSLKYVARLPELVKLISDEGCECQLATNIGFMSKLSNKADHKYCHSLAKEVFGGDMLDVFLPRLDGFERCGESFDTVISANPATYVGSADALKNARIAAEDFAKAVFDRIEFIRSN	soluble
MSLNIKEASEKSGVSADTIRYYERIGLIPPIHRNESGVRKFGAEDLRWILFTRQMRRAGLSIEALIDYLALFREGEHTLEARAELLKKQRIELKNRIDVMQEALDRLDFKIDNYEGHHHHHH	not soluble
MSDWTYSEGALDEAHWPQHYPACGGQRQSPINLQRTKVRYNPSLKGLNMTGYETQAGEFPMVNNGHTVQISLPSTMRMTVADGTVYIAQQMHFHWGGASSEISGSEHTVDGIRHVIEIHIVHYNSKYKSYDIAQDAPDGLAVLAAFVEVKNYPENTYYSNFISHLANIKYPGQRTTLTGLDVQDMLPRNLQHYYTYHGSLTTPPCTENVHWFVLADFVKLSRTQVWKLENSLLDHRNKTIHNDYRRTQPLNHRVVESNFPNQEYTLGSEFQAENLYFQ	soluble
MGSDKIHHHHHHMKQDRRKLFVLDTNVLLHEPLAIYSFKEHDVVIPMTVLEELDNIKDRKHDISRDARVAIRALEDILGGPTTPEQILKGVPLPSREGHLDVAGSLSIFPDHQVDFIAGALPGDNNDNLIINVALHLQKVHKPRTVVLVTKDINMRLKAKGAGIEKVEDYRTDQLIDDIRFLAKGFYQFEGDFWSKLDKVTTERQGKHTIHHVPIAALGKEAFYLNQYLLDDEANFCGRITGKTDTQLDIIDLGRDRLNHIEAWGIKPKNIYQGMALNALLDPEIDLVILTGPAGCGKTLLAIAAALELVVERKRYDKIIVTRNTPEIAESIGFLPGTEEEKMAPWLAAITDTLEVLHKNDVNPSGSMNYIMEKANIQFKSINFMRGRSIQNSVVLLDECQNLTASQIKTMITRMGEGTKLICCGNLSQIDSTYLTAVTSGLTYIVERFKDFEGSANVYLNGVVRSRLAEYAEEHL	not soluble

— the DeepSol protein solubility set
